Laboratory results as given in publication PMC9769477 (2022).

Biological target: 9G1
Assay: BLI

B1: CVA16/SZ05 viral particles (complex)
chain 1: GDPIADMIDQTVNNQVNRSLTALQVLPTAANTEASSHRLGTGVVPALQAAETGASSNASDKNLIETRCVLNHHSTQETAIGNFFSRAGLVSIITMPTTGTQNTDGYVNWDIDLMGYAQLRRKCELFTYMRFDAEFTFVVAKPNGELVPQLLQYMYVPPGAPKPTSRDSFAWQTATNPSVFVKMTDPPAQVSVPFMSPASAYQWFYDGYPTFGEHLQANDLDYGQCPNNMMGTFSIRTVGTEKSPHSITLRVYMRIKHVRAWIPRPLRNQPYLFKTNPNYKGNDIKCTSTSRDKITTL
chain 2: SPSAEACGYSDRVAQLTIGNSTITTQEAANIVIAYGEWPEYCPDTDATAVDKPTRPDVSVNRFFTLDTKSWAKDSKGWYWKFPDVLTEVGVFGQNAQFHYLYRSGFCVHVQCNASKFHQGALLVAVLPEYVLGTIAGGTGNENSHPPYATTQPGQVGAVLTHPYVLDAGIPLSQLTVCPHQWINLRTNNCATIIVPYMNTVPFDSALNHCNFGLLVIPVVPLDFNAGATSEIPITVTIAPMCAEFAGLRQAVKQ
chain 3: GIPTELKPGTNQFLTTDDGVSAPILPGFHPTPPIHIPGEVRNLLEICRVETILEVNNLKTNETTPMQRLCFPVSVQSKTGELCAAFRADPGRDGPWQSTILGQLCRYYTQWSGSLEVTFMFAGSFMATGKMLIAYTPPGGSVPADRITAMLGTHVIWDFGLQSSVTLVVPWISNTHYRAHARAGYFDYYTTGIITIWYQTNYVVPIGAPTTAYIVALAAAQDNFTMKLCKDTEDIEQTANIQ
chain 4: GSQVSTQRSGSHENSNSASEGSTINYTTINYYKDAYAASAGRQDMSQDPKRFTDPVMDVIHEMAPPLK
modifications: biotin (EZ-Link Sulfo-NHS-LC-LC-Biotin labelling of the particles before BLI; sites not stated) | biotin (EZ-Link Sulfo-NHS-LC-LC-Biotin labelling of the particles before BLI; sites not stated) | biotin (EZ-Link Sulfo-NHS-LC-LC-Biotin labelling of the particles before BLI; sites not stated) | biotin (EZ-Link Sulfo-NHS-LC-LC-Biotin labelling of the particles before BLI; sites not stated)
- Kd: 0.46 nM
- koff: 0.000631 s⁻¹
